Reference: patent publication US20100092457A1 (Chugai, published 2010)

T1: full-length human DSG3 (Desmoglein 3) protein (human, UniProt P32926 50-999)
T1 construct: Full-length protein constantly expressed on transfected cells (DSG3-CHO, DSG3-A549, DSG3-Ba/F3); no signal peptide limits are stated; also called hDSG3; PV antigen
T1 sequence: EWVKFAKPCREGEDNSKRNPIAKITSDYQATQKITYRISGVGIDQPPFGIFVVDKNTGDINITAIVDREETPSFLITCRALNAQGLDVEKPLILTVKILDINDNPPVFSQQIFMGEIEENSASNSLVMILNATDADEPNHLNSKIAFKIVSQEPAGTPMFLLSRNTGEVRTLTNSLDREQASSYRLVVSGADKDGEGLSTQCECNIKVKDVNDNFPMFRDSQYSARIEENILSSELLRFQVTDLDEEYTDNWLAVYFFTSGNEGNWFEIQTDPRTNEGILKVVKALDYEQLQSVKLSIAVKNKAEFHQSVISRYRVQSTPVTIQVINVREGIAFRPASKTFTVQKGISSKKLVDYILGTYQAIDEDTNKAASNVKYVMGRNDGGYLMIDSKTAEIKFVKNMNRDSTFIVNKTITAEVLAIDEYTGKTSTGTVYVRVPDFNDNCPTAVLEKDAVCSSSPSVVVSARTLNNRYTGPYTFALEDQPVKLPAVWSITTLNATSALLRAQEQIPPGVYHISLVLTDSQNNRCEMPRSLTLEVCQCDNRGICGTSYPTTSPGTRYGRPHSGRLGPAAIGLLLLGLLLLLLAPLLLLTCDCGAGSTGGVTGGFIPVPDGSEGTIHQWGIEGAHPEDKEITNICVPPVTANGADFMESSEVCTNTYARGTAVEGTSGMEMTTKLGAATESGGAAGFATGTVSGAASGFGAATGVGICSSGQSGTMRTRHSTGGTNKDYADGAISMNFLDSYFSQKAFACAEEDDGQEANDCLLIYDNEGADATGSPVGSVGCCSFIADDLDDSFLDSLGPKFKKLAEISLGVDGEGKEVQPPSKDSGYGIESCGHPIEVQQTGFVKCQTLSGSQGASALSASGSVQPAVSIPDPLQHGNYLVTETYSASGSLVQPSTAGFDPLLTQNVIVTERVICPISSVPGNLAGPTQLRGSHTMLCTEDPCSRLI

B1: DF364 mouse-human chimeric antibody (antibody)
heavy: not shown
light: EIVLTQSPALMAASPGEKVTITCSVSSSISSSNLHWYQQKSGTSPKPWIYGTSNLASGVPVRFSGSGSGTSYSLTISTMEAEDAATYYCQQWSSYPLTFGAGTKLELKRTVAAPSVFIFPPSDEQLKSGTASVVCLLNNFYPREAKVQWKVDNALQSGNSQESVTEQDSKDSTYSLSSTLTLSKADYEKHKVYACEVTHQGLSSPVTKSFNRGEC
notes: made in CHO DG44 cells; also called DF364c
B2: low-fucose DF364 mouse-human chimeric antibody (antibody, human IgG1, kappa)
heavy: not shown
light: EIVLTQSPALMAASPGEKVTITCSVSSSISSSNLHWYQQKSGTSPKPWIYGTSNLASGVPVRFSGSGSGTSYSLTISTMEAEDAATYYCQQWSSYPLTFGAGTKLELKRTVAAPSVFIFPPSDEQLKSGTASVVCLLNNFYPREAKVQWKVDNALQSGNSQESVTEQDSKDSTYSLSSTLTLSKADYEKHKVYACEVTHQGLSSPVTKSFNRGEC
modifications: low-fucose sugar chain (produced in YB2/0 cells)
notes: differs only in glycosylation (low fucose); also called YB-DF364c
B3: DF366 mouse-human chimeric antibody (antibody)
heavy: not shown
light: DIQMTQSPASLSASVGETVTITCRPSENIYNNLAWYQQKQGKSPQLLVYVATNLAEGVPSRFSGSGSGTRFSLKINSLQPEDFGKYYCQHSYGTPWTFGGGTKLEIKRTVAAPSVFIFPPSDEQLKSGTASVVCLLNNFYPREAKVQWKVDNALQSGNSQESVTEQDSKDSTYSLSSTLTLSKADYEKHKVYACEVTHQGLSSPVTKSFNRGEC
notes: made in CHO DG44 cells; also called DF366c
B4: low-fucose DF366 mouse-human chimeric antibody (antibody, human IgG1, kappa)
heavy: not shown
light: DIQMTQSPASLSASVGETVTITCRPSENIYNNLAWYQQKQGKSPQLLVYVATNLAEGVPSRFSGSGSGTRFSLKINSLQPEDFGKYYCQHSYGTPWTFGGGTKLEIKRTVAAPSVFIFPPSDEQLKSGTASVVCLLNNFYPREAKVQWKVDNALQSGNSQESVTEQDSKDSTYSLSSTLTLSKADYEKHKVYACEVTHQGLSSPVTKSFNRGEC
modifications: low-fucose sugar chain (produced in YB2/0 cells)
notes: differs only in glycosylation (low fucose); also called YB-DF366c
B5: DF151 mouse-human chimeric antibody (antibody)
heavy: not shown
light: DIVLTQSPASLAVSLGQSVTISCRASESVEYYGTSLMQWYQQKPGQPPKLLIYGASDVESGVPARFSGSGSGTDFSLNIHPVEEDDIAMYFCQQSRKVPYTFGSGTKLEIKRTVAAPSVFIFPPSDEQLKSGTASVVCLLNNFYPREAKVQWKVDNALQSGNSQESVTEQDSKDSTYSLSSTLTLSKADYEKHKVYACEVTHQGLSSPVTKSFNRGEC
notes: made in CHO DG44 cells; also called DF151c
B6: low-fucose DF151 mouse-human chimeric antibody (antibody, human IgG1, kappa)
heavy: not shown
light: DIVLTQSPASLAVSLGQSVTISCRASESVEYYGTSLMQWYQQKPGQPPKLLIYGASDVESGVPARFSGSGSGTDFSLNIHPVEEDDIAMYFCQQSRKVPYTFGSGTKLEIKRTVAAPSVFIFPPSDEQLKSGTASVVCLLNNFYPREAKVQWKVDNALQSGNSQESVTEQDSKDSTYSLSSTLTLSKADYEKHKVYACEVTHQGLSSPVTKSFNRGEC
modifications: low-fucose sugar chain (produced in YB2/0 cells)
notes: differs only in glycosylation (low fucose); also called YB-DF151c
B7: mouse IgG2a chimeric DF366 antibody (antibody)
heavy: EVQLQQSGPELVKPGASVKISCKASGYTFTDYNMDWVKQSHGESLEWIGYIYPNNGGSGYNQKFKSKATLTVDKSSSTAYMELHSLTSEDSAVYYCARRDSYYGFDMAWFAYWGQGTLVTVSAAKTTAPSVYPLAPVCGDTTGSSVTLGCLVKGYFPEPVTLTWNSGSLSSGVHTFPAVLQSDLYTLSSSVTVTSSTWPSQSITCNVAHPASSTKVDKKIEPRGPTIKPCPPCKCPAPNLLGGPSVFIFPPKIKDVLMISLSPIVTCVVVDVSEDDPDVQISWFVNNVEVHTAQTQTHREDYNSTLRVVSALPIQHQDWMSGKEFKCKVNNKDLPAPIERTISKPKGSVRAPQVYVLPPPEEEMTKKQVTLTCMVTDFMPEDIYVEWTNNGKTELNYKNTEPVLDSDGSYFMYSKLRVEKKNWVERNSYSCSVVHEGLHNHHTTKSFSRTPGK
light: DIQMTQSPASLSASVGETVTITCRPSENIYNNLAWYQQKQGKSPQLLVYVATNLAEGVPSRFSGSGSGTRFSLKINSLQPEDFGKYYCQHSYGTPWTFGGGTKLEIKRADAAPTVSIFPPSSEQLTSGGASVVCFLNNFYPKDINVKWKIDGSERQNGVLNSWTDQDSKDSTYSMSSTLTLTKDEYERHNSYTCEATHKTSTSPIVKSFNRNEC
notes: made in CHO DG44 cells; also called DF366m
B8: anti-DSG3 monoclonal antibody DF151 (antibody)
heavy: EVQLQQSGPELVKPGASVKISCKASGYSFTAYYMHWVKQSPEKCLEWIGQINPSTGGTTYNQKFKAKATLTVDKSSSTAYMQLKSLTSEDSAVYYCARWGDSWGQGTTLTVSSAKTTPPSVYPLAPGCGDTTGSSVTLGCLVKGYFPESVTVTWNSGSLSSSVHTFPALLQSGLYTMSSSVTVPSSTWPSQTVTCSVAHPASSTTVDKKLEPSGPISTINPCPPCKECHKCPAPNLEGGPSVFIFPPNIKDVLMISLTPKVTCVVVDVSEDDPDVQISWFVNNVEVHTAQTQTHREDYNSTIRVVSALPIQHQDWMSGKEFKCKVNNKDLPSPIERTISKIKGLVRAPQVYILPPPAEQLSRKDVSLTCLVVGFNPGDISVEWTSNGHTEENYKDTAPVLDSDGSYFIYSKLDIKTSKWEKTDSFSCNVRHEGLKNYYLKKTISRSPGK
light: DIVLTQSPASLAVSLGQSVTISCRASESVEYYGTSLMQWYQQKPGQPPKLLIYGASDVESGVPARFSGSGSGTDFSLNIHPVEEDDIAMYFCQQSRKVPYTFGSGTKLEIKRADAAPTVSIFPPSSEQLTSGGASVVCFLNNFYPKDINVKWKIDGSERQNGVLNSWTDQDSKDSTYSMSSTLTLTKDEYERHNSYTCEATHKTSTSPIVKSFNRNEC
notes: Mouse IgG2b kappa from hybridoma
B9: anti-DSG3 monoclonal antibody DF364 (antibody)
heavy: EVQLQQSGTVLARPGASVKMSCKASGYTFASYWIHWVKQRPGQGLEWIGSIYPGNSDTTYNQKFKGKAKLTVVTSASSAYMELSSLTNEDSAVYYCTEPTYYSYDDYYAMDYWGQGTSVTVSSAKTTPPSVYPLAPGSAAQTNSMVTLGCLVKGYFPEPVTVTWNSGSLSSGVHTFPAVLQSDLYTLSSSVTVPSSTWPSQTVTCNVAHPASSTKVDKKIVPRDCGCKPCICTVPEVSSVFIFPPKPKDVLTITLTPKVTCVVVDISKDDPEVQFSWFVDDVEVHTAQTKPREEQFNSTFRSVSELPIMHQDWLNGKEFKCRVNSAAFPAPIEKTISKTKGRPKAPQVYTIPPPKEQMAKDKVSLTCMITDFFPEDITVEWQWNGQPAENYKNTQPIMDTDGSYFVYSKLNVQKSNWEAGNTFTCSVLHEGLHNHHTEKSLSHSPGK
light: EIVLTQSPALMAASPGEKVTITCSVSSSISSSNLHWYQQKSGTSPKPWIYGTSNLASGVPVRFSGSGSGTSYSLTISTMEAEDAATYYCQQWSSYPLTFGAGTKLELKRADAAPTVSIFPPSSEQLTSGGASVVCFLNNFYPKDINVKWKIDGSERQNGVLNSWTDQDSKDSTYSMSSTLTLTKDEYERHNSYTCEATHKTSTSPIVKSFNRNEC
notes: Mouse IgG1 kappa from hybridoma
B10: anti-DSG3 monoclonal antibody DF366 (antibody)
heavy: EVQLQQSGPELVKPGASVKISCKASGYTFTDYNMDWVKQSHGESLEWIGYIYPNNGGSGYNQKFKSKATLTVDKSSSTAYMELHSLTSEDSAVYYCARRDSYYGFDMAWFAYWGQGTLVTVSAAKTTPPSVYPLAPGSAAQTNSMVTLGCLVKGYFPEPVTVTWNSGSLSSGVHTFPAVLQSDLYTLSSSVTVPSSTWPSQTVTCNVAHPASSTKVDKKIVPRDCGCKPCICTVPEVSSVFIFPPKPKDVLTITLTPKVTCVVVDISKDDPEVQFSWFVDDVEVHTAQTKPREEQFNSTFRSVSELPIMHQDWLNGKEFKCRVNSAAFPAPIEKTISKTKGRPKAPQVYTIPPPKEQMAKDKVSLTCMITDFFPEDITVEWQWNGQPAENYKNTQPIMDTDGSYFVYSKLNVQKSNWEAGNTFTCSVLHEGLHNHHTEKSLSHSPGK
light: DIQMTQSPASLSASVGETVTITCRPSENIYNNLAWYQQKQGKSPQLLVYVATNLAEGVPSRFSGSGSGTRFSLKINSLQPEDFGKYYCQHSYGTPWTFGGGTKLEIKRADAAPTVSIFPPSSEQLTSGGASVVCFLNNFYPKDINVKWKIDGSERQNGVLNSWTDQDSKDSTYSMSSTLTLTKDEYERHNSYTCEATHKTSTSPIVKSFNRNEC
notes: as for B9

Each binder was assayed against T1, full-length human DSG3 (Desmoglein 3) … (assay: flow cytometry).

Binding result, binds:
B1, B2, B3, B4, B5, B6, B7

Each binder was assayed against T1, full-length human DSG3 (Desmoglein 3) … (assay: hybridoma screening by flow cytometry on CHO cells expressing full-length human DSG3).
Method: Next, RPMI1640 medium (Invitrogen) was added carefully to dilute PEG 1500, and then PEG 1500 was removed by centrifuging and removing the supernatant. The group of fused cells suspended in RPMI1640 containing 10% FBS was seeded into a 96-well culture plate at 100 μL/well. The following day, RPMI1640 containing 10% FBS, 1×HAT media supplement (SIGMA), and 0.5×BM-Condimed H1 Hybridoma cloning supplement (Roche Diagnostics) (hereinafter referred to as HAT medium) was added at 100 μL/well. On the second or third day, half of the culture solution was replaced with HAT medium, and the culture supernatant from the seventh day was used in the screening in which binding activity to the DSG3 molecule was used as an indicator. The screening was performed by flow cytometric analysis which detects binding to CHO cells that show constant expression of full-length human DSG3. Positive clones obtained by this analysis were monocloned by the limiting dilution method. Specifically, DF120, DF122, DF148, DF151, DF153, DF168, DF331, DF364, and DF366 were established as antibodies that specifically bind to DSG3.
Flow cytometry was used to evaluate the binding of the obtained antibodies to CHO cells that show constant expression of full-length human DSG3. The cells were suspended in FACS Buffer (1% FBS/PBS) at 5×10⁵ cells/mL and dispensed into Multiscreen-HV Filter Plates (Millipore), and the supernatant was removed from this cell suspension solution by centrifugation. After adding to the supernatant-free cells an FACS buffer containing anti-DSG3 monoclonal antibodies which have been diluted to a suitable concentration (3 μg/mL) in the FACS buffer, this was left to stand for 30 minutes on ice to let the cells react with the monoclonal antibodies. After removing the supernatant from this reaction solution by centrifugation, the cells were washed once with FACS buffer. Next, by suspending the cells in a FACS buffer containing FITC-labeled anti-mouse IgG antibody as the secondary antibody, the cells were reacted with the secondary antibody for 30 minutes on ice. […]

Binding result, binds:
B8, B9, B10
